These results are taken from patent publication EP2698431B1 (Chugai Seiyaku Kabushiki Kaisha, dated 2020).

The target in assay [1] is T1, human FcRn (soluble, complexed with β2-microglobulin) (human, UniProt P61769 21-119). The assay is described as follows: SPR pH7.0.
Assay [2] concerns the target T2, mouse FcγRIIb (mouse, UniProt P08101 40-217, limits assumed).
T2 construct: bought; also called mFcgRIIb; mFcgRII
T2 sequence (looked up): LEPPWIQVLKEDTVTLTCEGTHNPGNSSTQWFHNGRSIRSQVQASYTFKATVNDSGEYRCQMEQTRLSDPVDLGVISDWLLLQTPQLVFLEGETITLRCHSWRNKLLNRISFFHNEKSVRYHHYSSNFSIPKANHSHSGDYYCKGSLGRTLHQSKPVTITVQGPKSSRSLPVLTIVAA
Kind of assay: SPR pH7.4.

Assay [3] addresses T3, mouse FcγRIII (mouse, UniProt P08508 31-215).
T3 construct: bought; also called mFcgRIII
T3 sequence (looked up): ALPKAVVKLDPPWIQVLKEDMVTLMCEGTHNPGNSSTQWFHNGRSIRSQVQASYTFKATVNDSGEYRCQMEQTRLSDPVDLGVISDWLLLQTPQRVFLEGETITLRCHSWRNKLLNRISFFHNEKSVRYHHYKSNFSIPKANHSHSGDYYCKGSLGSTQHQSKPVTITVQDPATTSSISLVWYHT
The assay is described as follows: SPR pH7.4.

For assay [4], the target named is T4, mouse FcγRIV (mouse, UniProt A0A0B4J1G0 21-203).
T4 construct: bought; also called mFcgRIV
T4 sequence: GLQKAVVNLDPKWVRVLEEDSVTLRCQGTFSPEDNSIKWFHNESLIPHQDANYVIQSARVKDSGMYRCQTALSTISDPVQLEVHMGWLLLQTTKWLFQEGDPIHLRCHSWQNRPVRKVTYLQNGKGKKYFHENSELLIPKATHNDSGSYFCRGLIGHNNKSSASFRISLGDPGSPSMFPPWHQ
Kind of assay: SPR pH7.4.

The target of assay [5] is T5, mouse FcγRI (mouse, UniProt P26151 25-297).
T5 construct: bought; also called mFcgRI
T5 sequence (looked up): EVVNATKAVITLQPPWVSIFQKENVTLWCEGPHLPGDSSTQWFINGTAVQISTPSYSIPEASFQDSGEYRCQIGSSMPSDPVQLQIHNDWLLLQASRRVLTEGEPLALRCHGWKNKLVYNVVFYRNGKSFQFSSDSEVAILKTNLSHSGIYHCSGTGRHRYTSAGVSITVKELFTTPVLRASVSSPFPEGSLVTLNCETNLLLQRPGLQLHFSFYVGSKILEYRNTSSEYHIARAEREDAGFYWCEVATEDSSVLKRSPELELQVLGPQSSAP
The assay is described as follows: SPR pH7.4.

Assay [6] has as its target T1, human FcRn (soluble, complexed with …). Kind of assay: SPR pH7.0. The source holds these as a separate data set.
Assay [7] deals with T2, mouse FcγRIIb. Kind of assay: SPR pH7.4. Also on record: unit not given here.
The target in assay [8] is T3, mouse FcγRIII. The assay is described as follows: SPR pH7.4. Details: unit not given here.
The target in assay [9] is T4, mouse FcγRIV. Kind of assay: SPR pH7.4. Also on record: unit not given here.
Assay [10] deals with T5, mouse FcγRI. Kind of assay: SPR pH7.4. Details: unit not given here.
The target of assay [11] is T1, human FcRn (soluble, complexed with …). The assay is described as follows: SPR pH7.0. The source holds these as a separate data set.
The target is the same in assay [12]. Kind of assay: SPR pH7.0. The source holds these as a separate data set.

Where two headings read alike, the source gives them in different places.

T1 sequence (P61769 21-119, one chain of several): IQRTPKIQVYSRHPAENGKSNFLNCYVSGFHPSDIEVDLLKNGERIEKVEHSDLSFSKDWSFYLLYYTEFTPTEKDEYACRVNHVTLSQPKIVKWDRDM

B1: VH3/L(WT)-IgG1-F947 (antibody)
chain 1: QVQLQESGPGLVKPSETLSLTCAVSGHSISHDHAWSWVRQPPGEGLEWIGFISYSGITNYNPSLQGRVTISRDNSKNTLYLQMNSLRAEDTAVYYCARSLARTTAMDYWGEGTLVTVSSASTKGPSVFPLAPSSKSTSGGTAALGCLVKDYFPEPVTVSWNSGALTSGVHTFPAVLQSSGLYSLSSVVTVPSSSLGTQTYICNVNHKPSNTKVDKKVEPKSCDKTHTCPPCPAPELLGGPSVFLFPPKPKDVLYISRTPEVTCVVVDVSHEDPEVKFNWYVDGVEVHNAKTKPREEQYNSTYRVVSVLQPLHADWLNGKEYKCKVSNKALPAPIEKTISKAKGQPREPQVYTLPPSRDELTKNQVSLTCLVKGFYPSDIAVEWESNGQPENNYKTTPPVLDSDGSFFLYSKLTVDKSRWQQGNVFSCSVMHEALHYHVTQKSLSLSP
chain 2: not shown
For B1, the Kd in [1], in assay [6], in assay [11] and in assay [12] was 11 nM each time. The binding amount was determined as 117 RU in assay [2]; 382 RU in [3]; 242 RU in [4]; 299 RU in [5]; 129 in [7]; 664 in assay [8]. Further, the binding amount in assay [9] amounted to 279; in [10] it was 329.
